In test [1] the target is SNAP25(CtoS), cysteine-free variant of SNAP25 (UniProt P60881). Nature of the test: cross-linking; 10 µM of one protein alone, 0-1.5 mM BS3, 1 h at 25 °C; gel electrophoresis, Coomassie staining and western blot. (In general: Immunoblotting shows a protein as a band on a membrane.)
Test [2] has as its target Synaptobrevin-2 variant lacking the transmembrane helix, Syb(1-96) (UniProt P63045). Nature of the test: native MS; SNAP25 and Synaptobrevin-2 mixed 1:2 and 2:1. As to conditions: scale: SNAP25 per Synaptobrevin-2.
Chain of UniProt P63045 (P63045 1-96, change not shown): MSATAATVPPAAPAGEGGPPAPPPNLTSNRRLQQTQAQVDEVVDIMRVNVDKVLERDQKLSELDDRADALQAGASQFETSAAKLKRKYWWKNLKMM
The target in test [3] is SNAP25(CtoS), cysteine-free variant of SNAP25 (UniProt P60881). The test can be described thus: native MS; 10 µM of one protein alone, 200 mM ammonium acetate.
The target of test [4] is Synaptobrevin-2 variant lacking the transmembrane helix, Syb(1-96) (UniProt P63045). Nature of the test: native MS; SNAP25 and Synaptobrevin-2 mixed 1:1; 200 mM ammonium acetate. As to conditions: scale: SNAP25 per Synaptobrevin-2.
The target of test [5] is pre-assembled binary SNAP25:Synaptobrevin-2 complex (2:1) (UniProt P60881). Described as above.
Test [6] deals with T1, full-length Complexin-1, P63041.
T1 chain: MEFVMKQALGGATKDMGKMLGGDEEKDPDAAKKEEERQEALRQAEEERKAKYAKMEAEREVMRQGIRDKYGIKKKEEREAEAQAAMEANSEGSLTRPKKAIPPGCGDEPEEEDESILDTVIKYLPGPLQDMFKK
Nature of the test: native MS; 10 µM of one protein alone, 200 mM ammonium acetate. As to conditions: remark: other sources report otherwise.

Results on 4 molecules are retold here after paper PMC9941103.

Where “and” joins values, the source holds several entries; their conditions need not be identical. Identical values can stand only once. Where only a bound is given, the exact number is not on record here.

In general, stoichiometry N refers to a count of units in the complex or per binding partner.

In test [1], “SNAP25(CtoS), cysteine-free variant of SNAP25 (from UniProt P60881 1-206)” yielded a stoichiometry N of less than 5.

Turning to “SNAP25(CtoS), cysteine-free variant of SNAP25 (from UniProt P60881 1-206) (natural protein)”, the stoichiometry N is 2 in test [2]; 2 and 3 in test [3]; 2 in test [4].

“pre-assembled binary SNAP25:Synaptobrevin-2 complex (2:1) (from UniProt P60881 1-206; P63045 1-96)”: the stoichiometry N in test [5] came to 2.

B1: full-length Complexin-1, P63041 1-134 (natural protein)
chain: MEFVMKQALGGATKDMGKMLGGDEEKDPDAAKKEEERQEALRQAEEERKAKYAKMEAEREVMRQGIRDKYGIKKKEEREAEAQAAMEANSEGSLTRPKKAIPPGCGDEPEEEDESILDTVIKYLPGPLQDMFKK
For the molecule B1, the stoichiometry N in test [6] was 2 and 3.
